Columns and labels:
[1] = test system: GTI_FRET5 polypeptide substrate (SEQ ID NO: 7), synthetic 55 amino acid VWF A2 domain derived substrate
[2] = test system: GTI_FRET4 polypeptide substrate (SEQ ID NO: 1), synthetic 62 amino acid VWF A2 domain derived substrate
[3] = test system: FRETS-VWF73 polypeptide substrate (SEQ ID NO: 6), VWF D1596 to R1668
Sequence of FRETS-VWF73 polypeptide substrate (SEQ ID NO: 6), VWF D1596 to R1668 (chain, as listed by the source): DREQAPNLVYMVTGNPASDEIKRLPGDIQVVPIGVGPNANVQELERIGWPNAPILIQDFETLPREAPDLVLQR

Sequence of GTI_FRET4 polypeptide substrate (SEQ ID NO: 1), synthetic 62 amino acid VWF A2 domain derived substrate (chain, as listed by the source): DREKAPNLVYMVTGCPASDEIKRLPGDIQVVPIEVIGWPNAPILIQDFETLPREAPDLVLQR
Sequence of GTI_FRET5 polypeptide substrate (SEQ ID NO: 7), synthetic 55 amino acid VWF A2 domain derived substrate (chain, as listed by the source): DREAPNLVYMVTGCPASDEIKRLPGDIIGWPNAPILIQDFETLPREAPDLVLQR

For “ADAMTS13 (a disintegrin-like and metallopeptidase with thrombospondin type-1 motif, 13), as present in plasma samples, calibrators and controls”, the “calibration curve / cleavage” value [1] was “the resulting calibration curve that is obtained is linear (see FIG. 5) and cleavage of the substrate occurs”, the “change in fluorescence with time (cleavage)” value [1] was “demonstrates that cleavage of the SEQ ID NO: 7 polypeptide substrate occurs” and the Increase in fluorescence (15 min - 0 min reading), sample Calibrator A [2] was 676 RFU. For the same substance, the Increase in fluorescence (15 min - 0 min reading), sample Calibrator B [2] was 1760 RFU, the Increase in fluorescence (15 min - 0 min reading), sample Calibrator C [2] was 6180 RFU and the Increase in fluorescence (15 min - 0 min reading), sample Calibrator D [2] was 10900 RFU. It also gave an Increase in fluorescence (15 min - 0 min reading), sample Calibrator E [2] of 18700 RFU, an Increase in fluorescence (15 min - 0 min reading), sample MON110707 [2] of 17900 RFU and an Increase in fluorescence (15 min - 0 min reading), sample Positive Control High [2] of 9150 RFU. The Increase in fluorescence (15 min - 0 min reading), sample Positive Control Low [2] was 2180 RFU, the Increase in fluorescence (15 min - 0 min reading), sample UAMS041609 [2] was 3880 RFU and the Increase in fluorescence (15 min - 0 min reading), sample VF [2] was 1290 RFU. It also gave an Increase in fluorescence (30 min - 0 min reading), sample Calibrator A [2] of 843 RFU, an Increase in fluorescence (30 min - 0 min reading), sample Calibrator B [2] of 3000 RFU and an Increase in fluorescence (30 min - 0 min reading), sample Calibrator C [2] of 11700 RFU. The Increase in fluorescence (30 min - 0 min reading), sample Calibrator D [2] was 20600 RFU, the Increase in fluorescence (30 min - 0 min reading), sample Calibrator E [2] was 35100 RFU and the Increase in fluorescence (30 min - 0 min reading), sample MON110707 [2] was 33400 RFU. It also gave an Increase in fluorescence (30 min - 0 min reading), sample Positive Control High [2] of 17300 RFU, an Increase in fluorescence (30 min - 0 min reading), sample Positive Control Low [2] of 3900 RFU and an Increase in fluorescence (30 min - 0 min reading), sample UAMS041609 [2] of 7930 RFU. It also gave an Increase in fluorescence (30 min - 0 min reading), sample VF [2] of 2440 RFU, an Increase in fluorescence (45 min - 0 min reading), sample Calibrator A [2] of 921 RFU and an Increase in fluorescence (45 min - 0 min reading), sample Calibrator B [2] of 4160 RFU. The Increase in fluorescence (45 min - 0 min reading), sample Calibrator C [2] was 16800 RFU, the Increase in fluorescence (45 min - 0 min reading), sample Calibrator D [2] was 29200 RFU and the Increase in fluorescence (45 min - 0 min reading), sample Calibrator E [2] was 49400 RFU. It also gave an Increase in fluorescence (45 min - 0 min reading), sample MON110707 [2] of 46800 RFU, an Increase in fluorescence (45 min - 0 min reading), sample Positive Control High [2] of 24900 RFU and an Increase in fluorescence (45 min - 0 min reading), sample Positive Control Low [2] of 5510 RFU. The Increase in fluorescence (45 min - 0 min reading), sample UAMS041609 [2] was 11700 RFU, the Increase in fluorescence (45 min - 0 min reading), sample VF [2] was 3550 RFU and the Increase in fluorescence (60 min - 0 min reading), sample Calibrator A [2] was 1170 RFU. For the same substance, the Increase in fluorescence (60 min - 0 min reading), sample Calibrator B [2] was 5360 RFU, the Increase in fluorescence (60 min - 0 min reading), sample Calibrator C [2] was 21700 RFU and the Increase in fluorescence (60 min - 0 min reading), sample Calibrator D [2] was 37300 RFU. It also gave an Increase in fluorescence (60 min - 0 min reading), sample Calibrator E [2] of 61100 RFU, an Increase in fluorescence (60 min - 0 min reading), sample MON110707 [2] of 58700 RFU and an Increase in fluorescence (60 min - 0 min reading), sample Positive Control High [2] of 31900 RFU. It also gave an Increase in fluorescence (60 min - 0 min reading), sample Positive Control Low [2] of 7170 RFU, an Increase in fluorescence (60 min - 0 min reading), sample UAMS041609 [2] of 15900 RFU and an Increase in fluorescence (60 min - 0 min reading), sample VF [2] of 4690 RFU. The Increase in fluorescence (75 min - 0 min reading), sample Calibrator A [2] was 1010 RFU, the Increase in fluorescence (75 min - 0 min reading), sample Calibrator B [2] was 6470 RFU and the Increase in fluorescence (75 min - 0 min reading), sample Calibrator C [2] was 26700 RFU. It also gave an Increase in fluorescence (75 min - 0 min reading), sample Calibrator D [2] of 44500 RFU, an Increase in fluorescence (75 min - 0 min reading), sample Calibrator E [2] of 70600 RFU and an Increase in fluorescence (75 min - 0 min reading), sample MON110707 [2] of 68400 RFU. It also gave an Increase in fluorescence (75 min - 0 min reading), sample Positive Control High [2] of 39800 RFU, an Increase in fluorescence (75 min - 0 min reading), sample Positive Control Low [2] of 8790 RFU and an Increase in fluorescence (75 min - 0 min reading), sample UAMS041609 [2] of 19900 RFU. The Increase in fluorescence (75 min - 0 min reading), sample VF [2] was 5780 RFU, the Increase in fluorescence (90 min - 0 min reading), sample Calibrator A [2] was 959 RFU and the Increase in fluorescence (90 min - 0 min reading), sample Calibrator B [2] was 7580 RFU. The Increase in fluorescence (90 min - 0 min reading), sample Calibrator C [2] was 32200 RFU, the Increase in fluorescence (90 min - 0 min reading), sample Calibrator D [2] was 53600 RFU and the Increase in fluorescence (90 min - 0 min reading), sample Calibrator E [2] was 83000 RFU. The Increase in fluorescence (90 min - 0 min reading), sample MON110707 [2] was 78400 RFU, the Increase in fluorescence (90 min - 0 min reading), sample Positive Control High [2] was 47500 RFU and the Increase in fluorescence (90 min - 0 min reading), sample Positive Control Low [2] was 10400 RFU. For the same substance, the Increase in fluorescence (90 min - 0 min reading), sample UAMS041609 [2] was 24700 RFU, the Increase in fluorescence (90 min - 0 min reading), sample VF [2] was 7260 RFU and the “RFU difference between Calibrator A (0% ADAMTS13 activity) and Calibrator E (100% ADAMTS13 activity) at 30 minutes” value [2] was “approximately 34,000 Relative Fluorescence Units (RFU) difference”. The “RFU difference between Calibrator A and E at 30 minutes” value [2] was “approximately 35000 RFU”, the “RFU difference between Calibrator A and Calibrator E at 30 minutes” value [3] was “approximately 1500 to 2000 RFU difference” and the “RFU difference between Calibrator A and E at 30 minutes” value [3] was 2500 RFU observed for FRETS-VWF73.
